Source: the RNAGym collection of RNA variant scans (doi:10.1073/pnas.2313332121)
This sample holds only a part of the variants without activity.

B1: TPR 5TU (parent)
chain: GGAUCUUCUCGAUCUAACAAAAAAGACAAAUCUGCCACAAAGCUUGAGAGCAUCUUCGGAUGCAGAGGCGGCAGCCUUCGGUGGCGCGAUAGCGCCAACGUUCUCAACUAUGACACGCAAAACGCGUGCUCCGUUGAAUGGAGUUUAUCAUG

Variants of: B1
Assay: polymerase ribozyme fitness, log enrichment relative to wild type (log ratio); higher = more active; in vitro selection for triplet polymerase activity
Summary of the method: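 For each subunit of a heterodimeric triplet polymerase ribozyme, a mutant library was built by PCR and transcribed, then taken through a single in vitro selection round in triplicate. Selection involved annealing to a biotinylated primer, the partner subunit and triplets, incubation frozen at −7 °C, gel excision of extended constructs, capture on streptavidin beads and RT-PCR. Genotypes were retained after Illumina sequencing of inputs and outputs only with ≥10 input reads and ≥1 read in each output. Fitness is defined as the logarithm of a genotype's enrichment relative to wild-type enrichment, using inverse-variance-weighted averages across replicates, with the logarithm taken to base 2.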

| Variant | polymerase ribozyme fitness (log ratio) |
| --- | --- |
| C10G G84U | -3.9 |
| U9G C75G C76A C85G | ≤ -4.2 |
| C10U A40C G42C A49G G58U G83C G92A A107C G141C C149G | ≤ -4.2 |
| C10A A22U A39U C85U G126A | ≤ -4.2 |
| C10U A89U C95U | -4.15 |
| C10G C87U | -3.38 |
| C8G C10A A40C G67A C75A C87A | ≤ -4.2 |
| C8G A39C U77C U104G A115C | ≤ -4.2 |
| C10U A21U C54A U55A C95U U102G A106C G141C | ≤ -4.2 |
| C10G A21G G59A | ≤ -4.2 |
| C10G A98G | -4 |
| C10G A20U A28U C35U C51G A64C G84U C123U | ≤ -4.2 |
| C8U A21U A28C A52U G94U C95G A97C A122U G126U G136A | ≤ -4.2 |
| U9A C10U U53A A66U C87A A119U G126A G141A | -4.03 |
| U9G C27U A41U G46C U90G C96G A119C A122C | ≤ -4.2 |
| U9G G42C G58C C95U | ≤ -4.2 |
| C10U A12U A21C A39U G71A A106C C125G G141A | ≤ -4.2 |
| U9C G58A A98U | ≤ -4.2 |
| C10U C32G A39U U55A C95G C96A C149U | ≤ -4.2 |
| C10U C32U C35U A49C C51A C87A G141A | ≤ -4.2 |
| U9G U13C A24U A49C C51G A52C A73C U104A C108G | ≤ -4.2 |

| Variant | polymerase ribozyme fitness (log ratio) |
| --- | --- |
| C10G C38U C95A | ≤ -4.2 |
| U9G C75U A150G | ≤ -4.2 |
| C10G A26U C43A G94C U127C G143U | ≤ -4.2 |
| C10G A17U C54G C93U A106C C125A | ≤ -4.2 |
| C10A G48C G59A C103G U104A C105U A113C U146A | ≤ -4.2 |
| U9A A40U G59U U134A | ≤ -4.2 |
| C8U U13C C14A A20U G50C C63A G71A C79G G92U A119C G141A | ≤ -4.2 |
| C10U C32A C38G C43A G83A A91U C95G A97U U144G | ≤ -4.2 |
| C8U A142C | -3.25 |
| U9A C93A A142C | -3.81 |
| C10U C96G | -3.82 |
| C10U C96U | -2.51 |
| U9A A22G C36A A39C G65U C87U C95A G126A G136A U139C | ≤ -4.2 |
| C10U A52G G67U C69A | ≤ -4.2 |
| U9A G94A | -3.69 |
| C8G G11A A19C G50A C69A G70A C93U | ≤ -4.2 |
| C8A G70C A89G G94C C116A A137G | ≤ -4.2 |
| C8G G92U | -3.57 |
| U9C G88C A137C | ≤ -4.2 |
| C8U U15G U44A C54U G84A U101G A110U A115G G133U | ≤ -4.2 |
| U9C A21C C57A C93A A115C | -4 |

| Variant | polymerase ribozyme fitness (log ratio) |
| --- | --- |
| C10U G25C G46C G88U C95U A97U A142C | ≤ -4.2 |
| U9G C27G A28G A41C C57U U82G G92C G140U | ≤ -4.2 |
| C10U A20U G83U | -3.85 |
| C8G C54U | -3.66 |
| U9G U33G G34U G92A C105G C132U U139C | ≤ -4.2 |
| U9G C14G A24G U55A U139A | ≤ -4.2 |
| C10U A23G C36A G58U A113U | ≤ -4.2 |
| U9C G11U A16G C51G C93G G112U | ≤ -4.2 |
| C10G G65U G88C C105U C114A | ≤ -4.2 |
| C10G A47G A49G G71A C87U A97U A106G A107C U111G U134C | ≤ -4.2 |
| C8G A21C U77A G92A C118A G136U | ≤ -4.2 |
| U9C A26U C54U G92A | ≤ -4.2 |
| C8A U15A A19U A28U A30U C38A A39C A40U G59U C99G A107U C114U | ≤ -4.2 |
| C10G U82C G94U U102C A107C A138U | ≤ -4.2 |
| C10G C116A | -2.96 |
| C10G A21U C87G A91U C95A | ≤ -4.2 |
| U9C A37C A40G U53A C75U U77A A119U | ≤ -4.2 |
| C8G G80C | ≤ -4.2 |
| C10A G25A A29U A89C G92U C108U A113U G117C | ≤ -4.2 |
| U9C A119U | ≤ -4.2 |
| C8U G42C C85A | ≤ -4.2 |

| Variant | polymerase ribozyme fitness (log ratio) |
| --- | --- |
| U9A G59A C87A | ≤ -4.2 |
| C8U A20G A24C A40C G50C G71C A89C C93U | ≤ -4.2 |
| C10G A12G G84A U109G G141A | ≤ -4.2 |
| C8G A16U C36G | ≤ -4.2 |
| U9A G83A | -4.06 |
| C8U C10U C32G C35G C95U G136A | ≤ -4.2 |
| C8U C63U C72U C123U G126U | ≤ -4.2 |
| U9C A97G | -2.82 |
| C8G U31A U33G U53G U55G G94A G126C | ≤ -4.2 |
| U9G C32A A40G A52G | ≤ -4.2 |
| C10A C76U | -3.95 |
| U9C A19G A30G C35A U56A C87G G117U U148C | ≤ -4.2 |
| C8U C116A | -2.08 |
| U9C A52C G67A G74U G86U C93U A115G | ≤ -4.2 |
| C10G A29U C95U C108A | ≤ -4.2 |
| C8G A23C A30U G59A C95A A119U G141C | ≤ -4.2 |
| C10U A52C U55A A97G A98G C129U | ≤ -4.2 |
| C8A G62A G92A | ≤ -4.2 |
| C8U A26G U56A C76G C105U A106C C123U | ≤ -4.2 |
| C10U A29U A47U G84U C103A C116G U145G G152U | ≤ -4.2 |
| C10U G46C G124A | ≤ -4.2 |
